Patent US20250020645, “A4B1 BINDING APTAMERS” (University of Washington, published 2025)

Tests used:
[1] = target: T1, Integrin alpha4beta1 on Jurkat cells (clone E6-1) (Homo sapiens, UniProt P13612;P05556 P13612:34-1032,P05556:21-798); assay: competition; 50% block of 100 nM VCAM-1 binding to Jurkat cells; settings: tags: endogenous, ATCC cell line; label: biotin, FAM or Cy5
Procedure: CS1 peptide and VCAM-1 competition. For competition studies involving the CS1 peptide, a Tris-based wash buffer comprised of TBS (Fisher) supplemented with 4.5 g/L glucose, 5.5 mM MgCl², 0.9 mM CaCl², and 10 mM MnCl² was used instead of the normal DPBS-based wash buffer described above. Mn²⁺ has previously been described to support α4β1 binding to the fibronectin CS1 peptide (Masumoto and Hemler. (1993) Journal of Biological Chemistry, 268, 228-234), and as MnCl² precipitates in DPBS, a Tris-based wash buffer was thus required. Peptide stocks were prepared fresh in the Tris-based wash buffer at 20 mM prior to the competition studies and the exact concentration was measured using a QuantTag Biotin Quantification Kit (Vector Labs of Newark, CA). Live/dead and aptamer staining were carried out as described above, except cells were pre-blocked with varying concentrations of the SCR-b or CS1-b peptide in Tris-based wash buffer supplemented with 1% BSA (w/v) and 0.1 mg/mL yeast tRNA for 30 min at room temperature prior to spiking in aptamer and incubating for another 30 min at 4° C. As Tris can neutralize PFA, cells were resuspended in regular wash buffer 1% BSA with 0.5% PFA after washing before analyzing on the flow cytometer. […]

[2] = target: T2, Integrin alpha4beta1 (VLA-4, CD49d/CD29), recombinant heterodimer (Homo sapiens, UniProt P13612;P05556 P13612:34-977,P05556:21-728); assay: BLI; 25 C, immobilised biotin-aptamer; settings: tags: His-tag; ACROBiosystems IT1-H52W1; label: biotin, FAM or Cy5
T2 sequence (P13612 34-977, chain 1 of 2): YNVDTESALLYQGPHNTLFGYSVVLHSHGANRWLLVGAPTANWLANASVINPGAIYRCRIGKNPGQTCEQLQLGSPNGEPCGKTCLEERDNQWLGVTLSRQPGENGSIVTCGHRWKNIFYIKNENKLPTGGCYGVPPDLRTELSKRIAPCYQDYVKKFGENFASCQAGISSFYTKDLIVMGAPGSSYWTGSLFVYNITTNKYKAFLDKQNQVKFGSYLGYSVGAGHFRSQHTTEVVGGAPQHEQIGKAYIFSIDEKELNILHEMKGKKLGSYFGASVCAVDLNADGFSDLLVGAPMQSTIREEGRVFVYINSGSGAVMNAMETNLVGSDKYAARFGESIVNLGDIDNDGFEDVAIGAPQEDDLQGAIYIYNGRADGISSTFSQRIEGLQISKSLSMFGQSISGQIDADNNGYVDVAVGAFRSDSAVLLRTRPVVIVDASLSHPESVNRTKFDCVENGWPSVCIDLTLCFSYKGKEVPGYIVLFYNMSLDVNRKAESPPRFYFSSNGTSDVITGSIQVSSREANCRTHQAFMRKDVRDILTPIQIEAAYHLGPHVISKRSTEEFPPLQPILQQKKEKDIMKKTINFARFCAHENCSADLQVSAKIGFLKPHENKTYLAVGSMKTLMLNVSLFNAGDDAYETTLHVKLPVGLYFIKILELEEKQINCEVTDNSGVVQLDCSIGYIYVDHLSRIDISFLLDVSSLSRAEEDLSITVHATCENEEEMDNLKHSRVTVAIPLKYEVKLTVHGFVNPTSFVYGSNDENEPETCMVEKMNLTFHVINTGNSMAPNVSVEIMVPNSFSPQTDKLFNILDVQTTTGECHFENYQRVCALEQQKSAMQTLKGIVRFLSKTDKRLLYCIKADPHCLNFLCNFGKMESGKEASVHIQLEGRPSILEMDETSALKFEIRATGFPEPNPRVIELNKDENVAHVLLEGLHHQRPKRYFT
T2 sequence (P05556 21-728, chain 2 of 2): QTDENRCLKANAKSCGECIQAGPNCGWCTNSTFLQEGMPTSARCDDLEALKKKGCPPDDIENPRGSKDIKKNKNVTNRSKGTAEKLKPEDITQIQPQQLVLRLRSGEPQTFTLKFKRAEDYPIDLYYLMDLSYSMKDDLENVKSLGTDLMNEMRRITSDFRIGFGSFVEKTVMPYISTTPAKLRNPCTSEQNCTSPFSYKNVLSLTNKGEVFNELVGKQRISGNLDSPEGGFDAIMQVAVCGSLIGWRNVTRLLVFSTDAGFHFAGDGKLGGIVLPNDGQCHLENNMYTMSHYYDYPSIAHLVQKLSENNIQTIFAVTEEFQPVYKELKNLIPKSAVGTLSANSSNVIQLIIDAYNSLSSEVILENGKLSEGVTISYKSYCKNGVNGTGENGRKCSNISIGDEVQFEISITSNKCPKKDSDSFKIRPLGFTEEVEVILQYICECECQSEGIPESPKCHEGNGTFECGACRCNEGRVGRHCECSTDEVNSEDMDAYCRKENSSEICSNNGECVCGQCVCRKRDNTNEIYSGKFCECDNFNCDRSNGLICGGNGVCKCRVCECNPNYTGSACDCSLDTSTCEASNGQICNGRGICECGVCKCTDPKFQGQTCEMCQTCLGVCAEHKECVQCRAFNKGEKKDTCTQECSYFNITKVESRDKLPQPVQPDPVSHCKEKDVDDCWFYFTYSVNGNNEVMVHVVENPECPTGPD
Procedure: (§1) Bio-layer interferometry. BLI studies were performed on an Octet RED96 instrument (Sartorius of Göttingen, Germany) using streptavidin biosensors (Sartorius) as previously described (Cheng et al. (2022) J Am Chem Soc, 144, 13851-64). Briefly, wash buffer supplemented with 1% BSA, 0.1 mg/mL yeast tRNA, 0.1 mg/mL salmon sperm DNA, and 0.01% Tween-20 (Sigma) was used as the sample buffer for all steps. All steps were performed at 25° C. with sample agitation at 1000 rpm. Biosensors were allowed to equilibrate in buffer for at least 10 min before loading. For sensor loading, 50 nM biotinylated aptamers were loaded until a 0.5 nm threshold before performing rinse and baseline steps in buffer alone for 100 s each. […] Kinetic constants were calculated for datasets with several analyte concentrations by conducting a global fit of the association and dissociation curves to a 1:1 ligand binding model. The quality of each fit was evaluated using R2 and χ2 values, which are listed in Table 6 for the appropriate datasets along with the calculated kinetic constants.
(§2) Table 6 lists BLI measured affinity kinetics of immobilized HR7A1, HR7A1.Tr1, and HR7A1.Tr2 aptamer binding to recombinant α4β1 protein. […] Values were calculated by performing a global fit of the binding curve data in FIG. 2B to a 1:1 binding model. […] The goodness of fit was evaluated by a reduced chi-square (χ2) and a R2 value approaching 1.

[3] = target: T1, Integrin alpha4beta1 on Jurkat cells …; assay: flow; apparent, 4 C; settings: tags: endogenous, ATCC cell line
Procedure: (§3) Binding assay: Jurkat cells were washed with DPBS and incubated with Zombie Violet (1:500, 10⁷ cells/mL, BioLegend) in DPBS for live/dead staining for 15 min at room temperature. After live/dead staining, cells were washed with aptamer washed buffer supplemented with 1% BSA to quench the remaining dye and aliquoted in a 96-well plate at 1-2e5 cells/well. For aptamer staining, cells were incubated with annealed aptamers at the indicated concentrations in 100 μL binding buffer (aptamer wash buffer supplemented with 1% BSA and 0.1 mg/ml yeast RNA) for 20-30 min at 4° C. For binding analysis at different temperatures, aptamers (diluted in binding buffer) and cells were separately incubated at the indicated temperatures for 20 min for equilibration. The equilibrated aptamer solutions were then added to the cells and allowed to incubate for 20-30 min. After incubation, cells were washed 2 times with 200 μL aptamer wash buffer supplemented with 1% BSA, resuspended in 200 μL aptamer wash buffer supplemented with 1% BSA and 0.2% PFA, and analyzed on an Attune NxT cytometer.

[4] = target: T1, Integrin alpha4beta1 on Jurkat cells …; assay: flow; apparent, 4 C; better retained binding at 20 and 37 C than parent; settings: tags: endogenous, ATCC cell line
Procedure: as §3

[5] = target: Integrin alpha4beta7, recombinant heterodimer (Homo sapiens, UniProt P13612;P26010 P13612:34-977,P26010:20-723); assay: BLI; negative control aptamer, 100 nM protein; settings: tags: His-tag; ACROBiosystems IT7-H52W4; label: biotin
Sequence of Integrin alpha4beta7, recombinant heterodimer (P13612 34-977, chain 1 of 2): as the sequence (P13612 34-977, chain 1 of 2) above
Sequence of Integrin alpha4beta7, recombinant heterodimer (P26010 20-723, chain 2 of 2): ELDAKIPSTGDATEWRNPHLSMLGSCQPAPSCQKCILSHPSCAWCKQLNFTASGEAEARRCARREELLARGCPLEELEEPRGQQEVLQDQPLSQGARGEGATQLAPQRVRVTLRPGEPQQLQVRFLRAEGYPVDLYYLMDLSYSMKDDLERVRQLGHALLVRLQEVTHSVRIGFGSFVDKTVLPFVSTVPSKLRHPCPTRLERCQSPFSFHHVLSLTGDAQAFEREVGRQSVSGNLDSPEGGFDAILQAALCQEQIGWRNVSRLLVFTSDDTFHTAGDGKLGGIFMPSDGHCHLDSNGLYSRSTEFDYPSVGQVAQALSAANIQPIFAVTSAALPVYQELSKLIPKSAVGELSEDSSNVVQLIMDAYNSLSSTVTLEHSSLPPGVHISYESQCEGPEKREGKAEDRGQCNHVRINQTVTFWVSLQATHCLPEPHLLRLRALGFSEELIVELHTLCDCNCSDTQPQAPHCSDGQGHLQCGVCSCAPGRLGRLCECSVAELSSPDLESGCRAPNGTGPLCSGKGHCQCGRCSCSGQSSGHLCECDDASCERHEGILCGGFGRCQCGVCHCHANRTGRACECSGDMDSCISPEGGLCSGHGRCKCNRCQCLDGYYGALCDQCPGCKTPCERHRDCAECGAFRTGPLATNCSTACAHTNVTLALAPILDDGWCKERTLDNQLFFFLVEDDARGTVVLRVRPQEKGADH
Procedure: as §1, with “each. Afterwards, aptamer-loaded sensors were associated with His-tagged human α4β1 (IT1-H52W1, ACROBiosystems of Beijing, China) or His-tagged human α4β7 (IT7-H52W4, ACROBiosystems) at concentrations and times indicated in the figures and captions. Lastly, sensors were transferred to wells containing buffer alone for dissociation.” for “each.”, “constants. […]” for “constants.”

[6] = target: T2, Integrin alpha4beta1 (VLA-4, …); assay: BLI; negative control aptamer, 100 nM protein; settings: tags: His-tag; ACROBiosystems IT1-H52W1; label: biotin
Procedure: as §1, with “each. Afterwards, aptamer-loaded sensors were associated with His-tagged human α4β1 (IT1-H52W1, ACROBiosystems of Beijing, China) or His-tagged human α4β7 (IT7-H52W4, ACROBiosystems) at concentrations and times indicated in the figures and captions. Lastly, sensors were transferred to wells containing buffer alone for dissociation.” for “each.”, “constants. […]” for “constants.”

[7] = target: T1, Integrin alpha4beta1 on Jurkat cells …; assay: competition; 50% displacement of 20 nM Cy5-Sgc4f on Jurkat cells; settings: tags: endogenous, ATCC cell line; label: biotin, FAM or Cy5; motif on top of a stem formed by flanking constant regions (predicted)
Procedure: (§4) Aptamer binding studies. While suspension H9, Jurkat, Raji, and K562 cells were harvested normally, adherent B16F10 cells were non-enzymatically dissociated with Versene (Gibco) prior to binding studies to prevent possible enzymatic cleavage of the α4β1 integrin that would affect aptamer binding. Once harvested, cells (2×10⁵) were pre-stained with Zombie Violet in DPBS for 15 min at room temperature, washed once with wash buffer supplemented with 1% BSA, and incubated with 100 μL folded FAM-labeled ssDNA pools or FAM/Cy5-labeled individual aptamers for 30 min at 4° C. in binding buffer at the indicated concentrations. For antibody co-staining, antibodies were added to the incubation with aptamers. For competitive binding studies, unique aptamers with different fluorescent labels were co-incubated on cells at different concentrations. Cells were then washed twice with 200 μL wash buffer 1% BSA to remove excess staining reagent. If biotinylated aptamers were used for primary staining, cells received a secondary stain with 100 μL fluorescently labeled streptavidin in wash buffer 1% BSA for 20 min at 4° C. and then washed twice as before. Lastly, stained cells were lightly fixed in 200 μL wash buffer 1% BSA with 0.1-0.5% perfluoroalkoxy alkane (PFA) before immediate analysis via flow cytometry as described above. […]

[8] = target: Integrin alpha4beta1 on B16F10 melanoma cells (Mus musculus, UniProt Q00651;P09055 Q00651:41-1039,P09055:21-798); assay: flow; apparent, 4 C; settings: tags: endogenous, ATCC cell line; label: biotin, FAM or Cy5; motif on top of a stem formed by flanking constant regions (predicted)
Procedure: as §4, with “reagent.” for “reagent. If biotinylated aptamers were used for primary staining, cells received a secondary stain with 100 μL fluorescently labeled streptavidin in wash buffer 1% BSA for 20 min at 4° C. and then washed twice as before. Lastly, stained cells were lightly fixed in 200 μL wash buffer 1% BSA with 0.1-0.5% perfluoroalkoxy alkane (PFA) before immediate analysis via flow cytometry as described above.”
FIGS. 16A, 16B illustrate that HR7A1 binds mouse α4β1. […] (16B) Flow cytometry binding curves of Cy5-labeled CD8.A3t, HR7A1, and Sgc4f to B16F10 cells, as determined by MFI. […] KD values were calculated by averaging the individual regression values of the independent experiments. […]

[9] = target: T2, Integrin alpha4beta1 (VLA-4, …); assay: BLI; 25 C, immobilised biotin-aptamer, DPBS Ca/Mg + 5 mM MgCl2 + BSA/tRNA/ssDNA; settings: tags: His-tag; ACROBiosystems IT1-H52W1; label: biotin, FAM or Cy5; motif on top of a stem formed by flanking constant regions (predicted)
Procedure: as §1, §2

[10] = target: T1, Integrin alpha4beta1 on Jurkat cells …; assay: competition; 50% displacement of 20 nM Cy5-HR7A1 on Jurkat cells; settings: tags: endogenous, ATCC cell line; label: Cy5
Procedure: as §4

T1 sequence (P13612 34-1032, chain 1 of 2): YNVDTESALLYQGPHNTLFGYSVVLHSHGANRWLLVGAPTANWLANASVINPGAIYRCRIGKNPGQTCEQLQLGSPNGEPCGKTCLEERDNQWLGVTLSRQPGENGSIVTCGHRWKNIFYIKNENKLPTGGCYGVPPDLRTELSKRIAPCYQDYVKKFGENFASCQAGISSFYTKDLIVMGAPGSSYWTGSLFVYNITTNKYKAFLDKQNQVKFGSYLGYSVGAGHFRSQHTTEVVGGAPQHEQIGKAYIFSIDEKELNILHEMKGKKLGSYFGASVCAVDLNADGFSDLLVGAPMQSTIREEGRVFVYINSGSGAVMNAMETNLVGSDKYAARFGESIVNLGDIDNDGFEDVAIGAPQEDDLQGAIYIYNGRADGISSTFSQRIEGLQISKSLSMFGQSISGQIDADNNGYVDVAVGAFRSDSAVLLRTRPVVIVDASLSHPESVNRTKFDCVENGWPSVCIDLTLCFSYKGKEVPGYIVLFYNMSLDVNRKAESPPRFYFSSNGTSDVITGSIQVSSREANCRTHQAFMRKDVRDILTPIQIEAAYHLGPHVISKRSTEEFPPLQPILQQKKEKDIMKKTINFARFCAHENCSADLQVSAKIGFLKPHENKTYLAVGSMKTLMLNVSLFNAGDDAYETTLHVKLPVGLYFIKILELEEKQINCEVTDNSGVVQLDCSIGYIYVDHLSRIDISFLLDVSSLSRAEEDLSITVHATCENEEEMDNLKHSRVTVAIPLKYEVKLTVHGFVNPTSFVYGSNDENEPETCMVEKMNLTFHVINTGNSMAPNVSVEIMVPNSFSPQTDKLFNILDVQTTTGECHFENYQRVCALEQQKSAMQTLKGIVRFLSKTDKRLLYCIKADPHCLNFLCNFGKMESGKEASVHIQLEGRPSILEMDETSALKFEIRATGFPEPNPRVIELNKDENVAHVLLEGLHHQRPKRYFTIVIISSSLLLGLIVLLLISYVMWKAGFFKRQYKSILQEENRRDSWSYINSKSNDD
T1 sequence (P05556 21-798, chain 2 of 2): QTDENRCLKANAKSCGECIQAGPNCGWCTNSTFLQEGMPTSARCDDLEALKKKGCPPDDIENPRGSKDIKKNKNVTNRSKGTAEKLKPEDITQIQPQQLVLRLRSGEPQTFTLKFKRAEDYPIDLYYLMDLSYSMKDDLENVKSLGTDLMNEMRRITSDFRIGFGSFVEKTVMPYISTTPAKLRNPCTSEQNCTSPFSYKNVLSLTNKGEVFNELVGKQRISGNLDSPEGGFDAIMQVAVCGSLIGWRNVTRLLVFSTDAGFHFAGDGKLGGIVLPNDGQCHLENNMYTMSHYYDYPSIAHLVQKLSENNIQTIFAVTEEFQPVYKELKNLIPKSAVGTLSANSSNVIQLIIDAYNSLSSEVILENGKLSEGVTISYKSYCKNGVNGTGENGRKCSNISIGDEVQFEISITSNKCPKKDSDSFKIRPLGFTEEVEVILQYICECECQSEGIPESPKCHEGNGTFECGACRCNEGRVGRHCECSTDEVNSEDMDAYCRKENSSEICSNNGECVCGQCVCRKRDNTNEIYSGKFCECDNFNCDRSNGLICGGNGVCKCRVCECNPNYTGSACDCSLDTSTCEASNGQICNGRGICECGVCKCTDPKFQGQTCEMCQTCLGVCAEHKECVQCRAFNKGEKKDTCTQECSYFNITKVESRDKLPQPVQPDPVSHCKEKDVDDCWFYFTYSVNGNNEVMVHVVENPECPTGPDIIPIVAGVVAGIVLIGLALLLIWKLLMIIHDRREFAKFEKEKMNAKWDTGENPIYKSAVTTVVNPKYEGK

CTCCTTACTAGATGCAACCCGACTACTAACGTCGTAAGAGAG (ssDNA) [HR7A1.Tr2]
IC50 [1]: 3 nM | Kd [2]: 9.89 nM

CGCGCCGTACTAGATGCAACCCGACTACTAACGTCGTACGAGCGCG (ssDNA, PS at three terminal linkages of each end: C*G*C*GCC...GAGC*G*C*G) [HR7A1.Tr2.S2E2.PS3]
Kd [3]: 3.2 nM

CGCGCCGTACTAGATGCAACCCGACTACTAACGTCGTACGAGCGCG (ssDNA, PS at * : C*G*CGCCGTA*CTA*GA*TGCA*A*CCCGACTACTAA*CGTCGTACGAGCG*C*G) [HR7A1.Tr2.S2E2.PSA]
Kd [4]: 9.6 nM

B1: CD8.A3 (ssDNA)
DNA: ATCCAGAGTGACGCAGCAACAGAGGTGTAGAAGTACACGTGAACAAGCTTGAAATTGTCTCTGACAGAGGTGGACACGGTGGCTTAGT
binding result [5]: no binding | binding result [6]: no binding

B2: HR7A1 (ssDNA)
DNA: ATCCAGAGTGACGCAGCAAACCTGACCTCCTTACTAGATGCAACCCGACTACTAACGTCGTAAGAGAGCCTGGACACGGTGGCTTAGT
IC50 [7]: 0.3 fold excess | Kd [8]: 5.2 nM | Kd [9]: 6.28 nM

B3: HR7A1.Tr1 (ssDNA)
DNA: CAGCAAACCTGACCTCCTTACTAGATGCAACCCGACTACTAACGTCGTAAGAGAG
Kd [2]: 7.74 nM

B4: Sgc4f (ssDNA)
DNA: ATCACTTATAACGAGTGCGGATGCAAACGCCAGACAGGGGGACAGGAGATAAGTGA
IC50 [10]: > 3 fold excess
